In paper PMC10401102, “Repurposing CRISPR/Cas to Discover SARS‐CoV‐2 Detecting and Neutralizing Aptamers”:

Experiments:
[1] = target: T1, SARS-CoV-2 Spike RBD (original) (SARS-CoV-2 (original), UniProt P0DTC2 319-541); experiment: ELONA; 25 C
[2] = target: T1, SARS-CoV-2 Spike RBD (original); experiment: EMSA

Row | Binder | Kd [1] [nM] | binding result [2]
1 | ACUUGGCCACGUCGACUGAAAUCCUCUUCCUGCAGGGCCAAGUG (structured_RNA) [#2-1-18] | 16.8 | –
2 | ACUUGGCCACGUCGACUGAAAUCCUCUUCCUGCAGGGCCAAGUG (structured_RNA, 2'-F at pyrimidines, 2'-O-methyl at purines) [#2-1-18-2'-F-O] | – | binds
3 | ACUUGGCCAAUUACCGUAGUUUUUGUAGUCUGCAGGGCCAAGUG (structured_RNA) [#5-2-15] | 24.7 | –
4 | ACUUGGCCAAUUACCGUAGUUUUUGUAGUCUGCAGGGCCAAGUG (structured_RNA, 2'-F at pyrimidines, 2'-O-methyl at purines) [#5-2-15-2'-F-O] | – | binds
5 | ACUUGGCCAUUUUUCUUUUUCUUUUUCUUUUUCUGCAGGGCCAAGUG (ssRNA) [NC-RNA apt] | – | no binding
